This test addresses T1, kindlin-2 (recombinant, full length, amino acids 1–680) (mouse, UniProt Q8CIB5 1-680).
T1 sequence (looked up): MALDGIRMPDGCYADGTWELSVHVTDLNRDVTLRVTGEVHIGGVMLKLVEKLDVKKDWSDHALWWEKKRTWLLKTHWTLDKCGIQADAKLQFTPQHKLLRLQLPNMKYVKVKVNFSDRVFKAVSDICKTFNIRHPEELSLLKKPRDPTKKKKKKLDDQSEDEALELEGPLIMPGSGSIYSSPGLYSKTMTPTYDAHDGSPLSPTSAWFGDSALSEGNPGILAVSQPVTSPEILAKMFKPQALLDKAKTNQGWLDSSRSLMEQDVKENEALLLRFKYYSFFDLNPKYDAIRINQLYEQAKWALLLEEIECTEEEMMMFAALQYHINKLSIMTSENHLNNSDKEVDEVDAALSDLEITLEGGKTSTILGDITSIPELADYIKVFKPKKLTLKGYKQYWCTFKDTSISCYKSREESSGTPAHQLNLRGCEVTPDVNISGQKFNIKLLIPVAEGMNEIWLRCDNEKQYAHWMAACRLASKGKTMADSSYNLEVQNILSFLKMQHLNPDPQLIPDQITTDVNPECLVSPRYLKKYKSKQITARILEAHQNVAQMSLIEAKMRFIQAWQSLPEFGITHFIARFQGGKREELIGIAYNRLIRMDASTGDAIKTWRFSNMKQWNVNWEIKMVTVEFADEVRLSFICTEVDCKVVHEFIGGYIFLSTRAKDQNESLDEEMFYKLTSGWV
Put plainly: ITC.

B1: paxillin (recombinant, full length, amino acids 1–557) (natural protein)
chain: not shown
modifications: Atto520 label (NHS ester) in the ultracentrifugation of Fig. 1 B only
On to B1, for which the Kd amounted to 205 ± 59 nM.

The values above are taken from paper PMC5674885 (The Journal of Cell Biology, 2017).
